In the test the target is T1, Cas5d from B. halodurans, His6-tagged, co-expressed with Csd1, Csd2 and pre-crRNA (B. halodurans, UniProt Q9KFY3 1-236).
T1 sequence: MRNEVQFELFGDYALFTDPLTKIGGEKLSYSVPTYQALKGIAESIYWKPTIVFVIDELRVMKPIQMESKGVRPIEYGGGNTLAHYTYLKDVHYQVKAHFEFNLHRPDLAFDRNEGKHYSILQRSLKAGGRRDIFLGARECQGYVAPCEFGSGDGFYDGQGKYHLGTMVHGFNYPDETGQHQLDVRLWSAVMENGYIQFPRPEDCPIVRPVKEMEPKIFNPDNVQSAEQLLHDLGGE
The experiment in a line: SEC. Background: In gel filtration, larger molecules generally elute earlier.

B1: Csd1 from B. halodurans, co-expressed with Cas5d, Csd2 and pre-crRNA (natural protein, UniProt Q9KFY2 1-627, looked up)
chain: MSWLLHLYETYEANLDQVGKTVKKGEDREYTLLPISHTTQNAHIEVTLDEDGDFLRAKALTKESTLIPCTEEAASRSGSKVAPYPLHDKLSYVAGDFVKYGGKIKNQDDAPFDTYIKNLGEWANSPYATEKVKCIYTYLKKGRLIEDLVDAGVLKLDENQQLIEKWEKRYEELLGEKPAIFSSGATDQASAFVRFNVFHPESIDDVWKDKEMFDSFISFYNDKLGEEDICFVTGNRLPSTERHANKIRHAADKAKLISANDNSGFTFRGRFKTSREAVGISYEVSQKAHNALKWLIHRQSKSIDDRVFLVWSNDNSLVPNPDEDAVDIMKHANRELERDPDTGQIFAGEVKKAIGGYRSDLNYQPEVHILVLDSATTGRMAVLYYRSLNKELYLNRLEAWHDSCAWEHRYRRDEKEFISFYGAPATKDIAFAAYGPRASEKVIKDLMERMLPCIVDGRRVPKDIVRSAFQRASNPVSMERWEWEKTLSITCALIRKMHIEQKEEWGVPLDKSSTDRSYLFGRLLAVADVLERGALGKDETRATNAIRYMNSYSKNPGRTWKTIQESLQPYQAKLGTKATYLSKLVDEIGDQFEPGDFNNNPLTEQYLLGFYSQRRELYKKKEEETNQ
For the molecule B1, the “stoichiometry N” value was ~1 copies in the complex (with two copies of Cas5d and six copies of Csd2).

B2: Csd2 from B. halodurans, Strep-II-tagged, co-expressed with Cas5d, Csd1 and pre-crRNA (natural protein, UniProt Q9KFY1 1-283, looked up)
chain: MTILDHKIDFAVILSVTKANPNGDPLNGNRPRQNYDGHGEISDVAIKRKIRNRLLDMEEPIFVQSDDRKADSFKSLRDRADSNPELAKMLKAKNASVDEFAKIACQEWMDVRSFGQVFAFKGSNLSVGVRGPVSIHTATSIDPIDIVSTQITKSVNSVTGDKRSSDTMGMKHRVDFGVYVFKGSINTQLAEKTGFTNEDAEKIKRALITLFENDSSSARPDGSMEVHKVYWWEHSSKLGQYSSAKVHRSLKIESKTDTPKSFDDYAVELYELDGLGVEVIDGQ
Take B2: the “stoichiometry N” value was ~6 copies in the complex (with two copies of Cas5d and one copy of Csd1).

In general, stoichiometry N refers to a count of units in the complex or per binding partner.

For the origin of these results see publication PMC3479641 (Structure (London, England : 1993), 2012).
